This series in a line: total protein half-life in vivo (active degradation + dilution); higher = more stable protein.
[1] abbreviates: E. coli NCM3722 delta-clpP delta-lon delta-hslV, growth: N-lim chemostat, doubling time 6 h.
Where [2] appears, read: E. coli NCM3722 delta-clpP, growth: N-lim chemostat, doubling time 6 h.
Setting [3] is: E. coli NCM3722 delta-hslV, growth: N-lim chemostat, doubling time 6 h.
Where [4] appears, read: E. coli NCM3722 delta-lon, growth: N-lim chemostat, doubling time 6 h.
Where [5] appears, read: E. coli NCM3722 delta-smpB, growth: N-lim chemostat, doubling time 6 h.
Where [6] appears, read: wild type E. coli NCM3722, growth: C-lim chemostat, doubling time 3 h.
[7] abbreviates: wild type E. coli NCM3722, growth: C-lim chemostat, doubling time 6 h.
Setting [8] is: wild type E. coli NCM3722, growth: C-lim chemostat, doubling time 12 h.
[9] abbreviates: wild type E. coli NCM3722, growth: N-lim chemostat, doubling time 6 h.
Where [10] appears, read: wild type E. coli NCM3722, growth: N-lim chemostat, doubling time 12 h.
Setting [11] is: wild type E. coli NCM3722, growth: P-lim chemostat, doubling time 6 h.
[12] abbreviates: wild type E. coli NCM3722, growth: P-lim chemostat, doubling time 12 h.

± gives the standard deviation of the averaged measurements.

In the case of “MKALSKLKAEEGIWMTDVPVPELGHNDLLIKIRKTAICGTDVHIYNWDEWSQKTIPVPMVVGHEYVGEVVGIGQEVKGFKIGDRVSGEGHITCGHCRNCRGGRTHLCRNTIGVGVNRPGCFAEYLVIPAFNAFKIPDNISDDLAAIFDPFGNAVHTALSFDLVGEDVLVSGAGPIGIMAAAVAKHVGARNVVITDVNEYRLELARKMGITRAVNVAKENLNDVMAELGMTEGFDVGLEMSGAPPAFRTMLDTMNHGGRIAMLGIPPSDMSIDWTKVIFKGLFIKGIYGREMFETWYKMAALIQSGLDLSPIITHRFSIDDFQKGFDAMRSGQSGKVILSWD”, the “total protein half-life in vivo” value by setting is: under setting [1], 4.87 ± 0.096 h; under setting [2], 5 ± 0.21 h; under setting [3], 5.96 ± 1.6 h; under setting [4], 5.24 ± 0.061 h; under setting [5], 4.44 ± 0.18 h; under setting [6], 2.439 ± 0.022 h. For the same sequence, the “total protein half-life in vivo” value worked out at 4.37 ± 0.59 h under setting [7]; 9.68 ± 1.8 h under setting [8]; 4.85 ± 0.16 h under setting [9]; 8.68 ± 0.96 h under setting [10]; 6.2 ± 0.19 h under setting [11]; 12.6 ± 0.36 h under setting [12].
For the sequence “MNKSQLIDKIAAGADISKAAAGRALDAIIASVTESLKEGDDVALVGFGTFAVKERAARTGRNPQTGKEITIAAAKVPSFRAGKALKDAVN [P0ACF4]”, the “total protein half-life in vivo” value was found to be 7.01 ± 0.69 h under setting [1]; 5.94 ± 0.61 h under setting [3]; 6.96 ± 0.96 h under setting [4]; 5.51 ± 0.24 h under setting [5]; 2.88 ± 0.054 h under setting [6]; 5.1 ± 0.35 h under setting [7]. Further, the “total protein half-life in vivo” value reads like this: under setting [8], 7.44 ± 0.28 h; under setting [9], 5.035 ± 0.04 h; under setting [10], 10.813 ± 0.0038 h; under setting [11], 4.6 ± 0.72 h; under setting [12], 10.8 ± 0.92 h.
As to “MRQTKTGILLANLGTPDAPTPEAVKRYLKQFLSDRRVVDTSRLLWWPLLRGVILPLRSPRVAKLYASVWMEGGSPLMVYSRQQQQALAQRLPEMPVALGMSYGSPSLESAVDELLAEHVDHIVVLPLYPQFSCSTVGAVWDELARILARKRSIPGISFIRDYADNHDYINALANSVRASFAKHGEPDLLLLSYHGIPQRYADEGDDYPQRCRTTTRELASALGMAPEKVMMTFQSRFGREPWLMPYTDETLKMLGEKGVGHIQVMCPGFAADCLETLEEIAEQNREVFLGAGGKKYEYIPALNATPEHIEMMANLVAAYR”, the “total protein half-life in vivo” value runs as follows: under setting [2], 6.11 ± 0.13 h; under setting [3], 6.43 ± 0.78 h; under setting [4], 5.98 ± 0.68 h; under setting [5], 5.63 ± 0.32 h; under setting [6], 2.96 ± 0.033 h; under setting [7], 6.24 ± 0.92 h. In addition, the “total protein half-life in vivo” value amounted to 10.5 ± 2.5 h under setting [8]; 5.33 ± 0.98 h under setting [9]; 12.1 ± 0.19 h under setting [10]; 5.73 ± 0.36 h under setting [11]; 12.2 ± 1.5 h under setting [12].
As for “MLNQELELSLNMAFARAREHRHEFMTVEHLLLALLSNPSAREALEACSVDLVALRQELEAFIEQTTPVLPASEEERDTQPTLSFQRVLQRAVFHVQSSGRNEVTGANVLVAIFSEQESQAAYLLRKHEVSRLDVVNFISHGTRKDEPTQSSDPGSQPNSEEQAGGEERMENFTTNLNQLARVGGIDPLIGREKELERAIQVLCRRRKNNPLLVGESGVGKTAIAEGLAWRIVQGDVPEVMADCTIYSLDIGSLLAGTKYRGDFEKRFKALLKQLEQDTNSILFIDEIHTIIGAGAASGGQVDAANLIKPLLSSGKIRVIGSTTYQEFSNIFEKDRALARRFQKIDITEPSIEETVQIINGLKPKYEAHHDVRYTAKAVRAAVELAVKYINDRHLPDKAIDVIDEAGARARLMPVSKRKKTVNVADIESVVARIARIPEKSVSQSDRDTLKNLGDRLKMLVFGQDKAIEALTEAIKMARAGLGHEHKPVGSFLFAGPTGVGKTEVTVQLSKALGIELLRFDMSEYMERHTVSRLIGAPPGYVGFDQGGLLTDAVIKHPHAVLLLDEIEKAHPDVFNILLQVMDNGTLTDNNGRKADFRNVVLVMTTNAGVRETERKSIGLIHQDNSTDAMEEIKKIFTPEFRNRLDNIIWFDHLSTDVIHQVVDKFIVELQVQLDQKGVSLEVSQEARNWLAEKGYDRAMGARPMARVIQDNLKKPLANELLFGSLVDGGQVTVALDKEKNELTYGFQSAQKHKAEAAH [P0ABH9]”, the “total protein half-life in vivo” value under setting [1] is 6.61 ± 0.43 h; the “total protein half-life in vivo” value under setting [2] was found to be 6.29 ± 0.55 h; the “total protein half-life in vivo” value under setting [3] turned out to be 0.877 ± 0.22 h; the “total protein half-life in vivo” value under setting [4] worked out at 0.987 ± 0.069 h; the “total protein half-life in vivo” value under setting [5] amounted to 0.823 ± 0.015 h; the “total protein half-life in vivo” value under setting [6] came to 0.7994 ± 0.0018 h. In addition, the “total protein half-life in vivo” value runs as follows: under setting [7], 0.97 ± 0.039 h; under setting [8], 1.14 ± 0.28 h; under setting [9], 1.03 ± 0.18 h; under setting [10], 1.046 ± 0.0038 h; under setting [11], 0.795 ± 0.2 h; under setting [12], 1.56 ± 0.78 h.
For the sequence “MNSLQILSFVGFTLLVAVITWWKVRKTDTGSQQGYFLAGRSLKAPVIAASLMLTNLSTEQLVGLSGQAYKSGMSVMGWEVTSAVTLIFLALIFLPRYLKRGIATIPDFLEERYDKTTRIIIDFCFLIATGVCFLPIVLYSGALALNSLFHVGESLQISHGAAIWLLVILLGLAGILYAVIGGLRAMAVADSINGIGLVIGGLMVPVFGLIAMGKGSFMQGIEQLTTVHAEKLNSIGGPTDPLPIGAAFTGLILVNTFYWCTNQGIVQRTLASKSLAEGQKGALLTAVLKMLDPLVLVLPGLIAFHLYQDLPKADMAYPTLVNNVLPVPMVGFFGAVLFGAVISTFNGFLNSASTLFSMGIYRRIINQNAEPQQLVTVGRKFGFFIAIVSVLVAPWIANAPQGLYSWMKQLNGIYNVPLVTIIIMGFFFPRIPALAAKVAMGIGIISYITINYLVKFDFHFLYVLACTFCINVVVMLVIGFIKPRATPFTFKDAFAVDMKPWKNVKIASIGILFAMIGVYAGLAEFGGYGTRWLAMISYFIAAVVIVYLIFDSWRHRHDPAVTFTPDGKDSL”, under setting [1], the “total protein half-life in vivo” value was 3.19 h.
For the sequence “MELSSLTAVSPVDGRYGDKVSALRGIFSEYGLLKFRVQVEVRWLQKLAAHAAIKEVPAFAADAIGYLDAIVASFSEEDAARIKTIERTTNHDVKAVEYFLKEKVAEIPELHAVSEFIHFACTSEDINNLSHALMLKTARDEVILPYWRQLIDGIKDLAVQYRDIPLLSRTHGQPATPSTIGKEMANVAYRMERQYRQLNQVEILGKINGAVGNYNAHIAAYPEVDWHQFSEEFVTSLGIQWNPYTTQIEPHDYIAELFDCVARFNTILIDFDRDVWGYIALNHFKQKTIAGEIGSSTMPHKVNPIDFENSEGNLGLSNAVLQHLASKLPVSRWQRDLTDSTVLRNLGVGIGYALIAYQSTLKGVSKLEVNRDHLLDELDHNWEVLAEPIQTVMRRYGIEKPYEKLKELTRGKRVDAEGMKQFIDGLALPEEEKARLKAMTPANYIGRAITMVDELK [P0AB89]”, the “total protein half-life in vivo” value amounted to 4.77 ± 0.41 h under setting [1]; 5.24 ± 0.62 h under setting [2]; 5.18 ± 0.54 h under setting [3]; 5.11 ± 0.4 h under setting [4]; 4.63 ± 0.12 h under setting [5]; 3.01 ± 0.1 h under setting [6]. Further, the “total protein half-life in vivo” value under setting [7] was 5.55 ± 0.32 h; the “total protein half-life in vivo” value under setting [8] was 10.5 ± 0.86 h; the “total protein half-life in vivo” value under setting [9] turned out to be 4.64 ± 0.062 h; the “total protein half-life in vivo” value under setting [10] turned out to be 8.57 ± 0.16 h; the “total protein half-life in vivo” value under setting [11] was 5.79 ± 0.6 h; the “total protein half-life in vivo” value under setting [12] came out at 12.25 ± 0.033 h.
“MAEVTQLKRYDARPINWGKWFLIGIGMLVSAFILLVPMIYIFVQAFSKGLMPVLQNLADPDMLHAIWLTVMIALIAVPVNLVFGILLAWLVTRFNFPGRQLLLTLLDIPFAVSPVVAGLVYLLFYGSNGPLGGWLDEHNLQIMFSWPGMVLVTIFVTCPFVVRELVPVMLSQGSQEDEAAILLGASGWQMFRRVTLPNIRWALLYGVVLTNARAIGEFGAVSVVSGSIRGETLSLPLQIELLEQDYNTVGSFTAAALLTLMAIITLFLKSMLQWRLENQEKRAQQEEHHEH [P0AEB0]”: the “total protein half-life in vivo” value is 4.83 h under setting [1]; 5.5 h under setting [2]; 4.23 h under setting [3]; 4.22 h under setting [5]; 2.64 h under setting [6]; 4.97 ± 1.4 h under setting [7]. Moreover, the “total protein half-life in vivo” value under setting [9] stood at 4.59 h, the “total protein half-life in vivo” value under setting [10] was determined as 4.73 h, the “total protein half-life in vivo” value under setting [11] came out at 4.26 h and the “total protein half-life in vivo” value under setting [12] came to 10.7 ± 2 h.

Source of the values: the supplement of paper PMC11246515.
